From PMC10366140

Test system: apRAD51C-CTD-1 WT (Alvinella pompejana)
Test: fluorescence polarization
Conditions: FP: 20 mM HEPES pH 8, 80 mM NaCl, 2.5 mM ATP, 2.5 mM MgCl2, 1 mM DTT, 0.1 mg/mL BSA, 10 nM DNA, 37 C 20 min, EMSA: 20 mM Tris pH 8.0, 150 mM KCl, 4 C 15 min

TTTTTTTTTTTTTTTTTTTT [poly-20dT]
Kd: 1250 nM
